Results from US20130195757, “SPARC BINDING APTAMERS AND USES THEREOF” (ABRAXIS BIOSCIENCE, LLC, published 2013).

Experiments:
[1] = biological target: T1, SPARC (osteonectin), recombinant human (Biol-SPARC) (Homo sapiens, UniProt P09486 P09486:18-303); assay: SPR; SPARC immobilized; conditions: tags: Biol; amine-coupled to CM5 chip or injected as analyte
T1 sequence: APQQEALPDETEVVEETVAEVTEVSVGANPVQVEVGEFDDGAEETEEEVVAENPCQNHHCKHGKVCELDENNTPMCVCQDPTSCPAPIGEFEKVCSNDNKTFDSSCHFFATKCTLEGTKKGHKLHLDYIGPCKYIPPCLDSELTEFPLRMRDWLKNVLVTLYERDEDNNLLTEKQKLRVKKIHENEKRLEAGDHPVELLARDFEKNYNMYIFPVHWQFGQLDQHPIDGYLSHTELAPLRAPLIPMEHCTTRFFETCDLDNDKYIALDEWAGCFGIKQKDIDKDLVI
Method: (§1) Purified SPARC was immobilized onto the surface of a CM5 biosensor chip (GE/Biacore International AB) by the use of the amine coupling kit and the Surface Preparation tool as present in the BIACORE 3000® control software. The biosensor chip surface was activated by injecting (35 μL at a flow rate of 5 μL/min) a mixture of N-hydroxysuccinimide (NHS) and N-ethyl-N′-(dimethyl-aminopropyl)-carbodiimide (EDC) (1:1; v/v) into one of the four flow channels (Fcs). Then the SPARC, diluted (0.1 mg/mL) in coupling buffer (10 mM sodium acetate, pH 4.5), was injected and bound to the activated carboxymethylated dextran surface via its primary amine groups. After coupling, the remaining active groups were blocked with ethanolamine (1 M). Purified recombinant human VEGF165 (PeproTech, Rocky Hill, N.J.) was diluted into 100 μg/mL in sodium acetate, pH 5.5 and immobilized onto the biosensor chip surface as a control, and VEGF DNA aptamers were injected (FIG. 3). To validate recovery, the resulting bound VEGF aptamers were eluted, and 2 μL were recovered, out of which 0.5 μL was amplified by PCR.
(§2) A concentration series of selected oligonucleotide DNA were injected over both reference surface and SPARC surface. Reference surfaces were used to subtract bulk refractive index responses from the specific SPARC binding signal as well as to ensure that there is no nonspecific interaction with the sensor chip surface.

[2] = biological target: T1, SPARC (osteonectin), recombinant human …; assay: SPR; heterogeneous ligand model KD1; KD2 0.103 mM; units as printed; conditions: tags: Biol; amine-coupled to CM5 chip or injected as analyte
Method: as §1
A concentration series of selected oligonucleotide DNA were injected over both reference surface and SPARC surface. […]

[3] = biological target: T2, VEGF165 (Homo sapiens, UniProt P15692-4 P15692-4:27-191); assay: SPR; VEGF immobilized; no specific interaction; conditions: tags: PeproTech; amine-coupled to CM5 chip; chain copies: 2
[4] = biological target: T1, SPARC (osteonectin), recombinant human …; assay: SPR; SPARC immobilized; conditions: tags: Biol; amine-coupled to CM5 chip or injected as analyte; remark: listed apart in the source
[5] = biological target: T1, SPARC (osteonectin), recombinant human …; assay: SPR; aptamer immobilized on SA chip; 1:1 Langmuir; conditions: tags: Biol; amine-coupled to CM5 chip or injected as analyte; label: 3'-biotin
Method: 20 μM each of biotinylated Apt180 (SEQ ID NO: 1), biotinylated Apt187 (SEQ ID NO: 2), or a control scrambled aptamer with biotin coupled to the 3′-end were immobilized onto commercially prepared SA sensor chips (GE/Biacore International AB), which have preimmobilized streptavidin, to allow biotin capture. Typically 1200 to 1300 RU of biotinylated aptamers were immobilized.
Using methods as described in Examples 2-3, above, biotinylated Apt180 and Apt187 were immobilized on CM5 sensorchips immobilized with streptavidin (SA sensorchips). Biol-SPARC was injected at concentrations ranging from 34.9 nM to 840 nM over the immobilized Apt180 and Apt187. For Apt180, the resulting curves were best fitted by heterogeneous ligand model indicating the possible presence of multiple binding sites.

[6] = biological target: T2, VEGF165; assay: SPR; negligible binding; conditions: tags: PeproTech; amine-coupled to CM5 chip; chain copies: 2
[7] = biological target: T1, SPARC (osteonectin), recombinant human …; assay: SPR; SPARC immobilized on CM5; HBS 10 mM HEPES 150 mM NaCl 0.005% P-20; approx 4 pM in p171; conditions: tags: Biol; amine-coupled to CM5 chip or injected as analyte
Method: After coupling, the remaining active groups were blocked with ethanolamine (1 M). Purified recombinant human VEGF165 (PeproTech, Rocky Hill, N.J.) was diluted into 100 μg/mL in sodium acetate, pH 5.5 and immobilized onto the biosensor chip surface as a control, and VEGF DNA aptamers were injected (FIG. 3). To validate recovery, the resulting bound VEGF aptamers were eluted, and 2 μL were recovered, out of which 0.5 μL was amplified by PCR.
as §2
FIG. 21 depicts a sensorgram showing the binding and dissociation of Apt180 (SEQ ID NO: 1) to a Biol-SPARC immobilized CM5 sensorchip as described in Example 3. […] FIG. 22 is a sensorgram showing the binding and dissociation of Biol-SPARC and a modified Apt180 having the 3′ primer region of the aptamer removed. As described in Example 3, Biol-SPARC was immobilized to CM5 sensorchip and various concentrations (0.625 μM, 1.25 μM, 2.5 μM, 5 μM, and 10 μM) of the 3′ primer deleted Apt180, were injected over the Biol-SPARC sensor chip. The resulting KD calculated from this experiment was 1.45 nM. […]

[8] = biological target: Bovine serum albumin (Bos taurus, UniProt P02769 P02769:25-607); assay: SPR; negligible binding; conditions: label: 3'-biotin
[9] = biological target: T3, SPARC, mouse (from PYS-2 cells) (Mus musculus, UniProt P07214 P07214:18-302); assay: SPR; aptamer immobilized on SA chip; conditions: tags: Sigma; PYS-2 parietal yolk sac cells; label: 3'-biotin
T3 sequence: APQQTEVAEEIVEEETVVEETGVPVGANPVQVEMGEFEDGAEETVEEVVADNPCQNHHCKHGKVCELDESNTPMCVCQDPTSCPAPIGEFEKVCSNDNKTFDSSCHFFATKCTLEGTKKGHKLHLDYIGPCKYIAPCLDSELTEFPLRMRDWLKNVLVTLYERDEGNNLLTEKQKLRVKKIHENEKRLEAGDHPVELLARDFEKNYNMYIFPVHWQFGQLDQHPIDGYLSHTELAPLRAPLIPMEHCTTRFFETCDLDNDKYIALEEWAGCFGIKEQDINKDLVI

T2 sequence (P15692 other isoform, or with tags, fused parts or gaps): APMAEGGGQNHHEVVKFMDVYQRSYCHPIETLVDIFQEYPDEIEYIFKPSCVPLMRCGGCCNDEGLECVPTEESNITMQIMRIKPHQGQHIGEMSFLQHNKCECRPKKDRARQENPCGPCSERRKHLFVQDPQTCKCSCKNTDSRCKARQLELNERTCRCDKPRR
Chain of Bovine serum albumin (P02769 25-607, one chain of several): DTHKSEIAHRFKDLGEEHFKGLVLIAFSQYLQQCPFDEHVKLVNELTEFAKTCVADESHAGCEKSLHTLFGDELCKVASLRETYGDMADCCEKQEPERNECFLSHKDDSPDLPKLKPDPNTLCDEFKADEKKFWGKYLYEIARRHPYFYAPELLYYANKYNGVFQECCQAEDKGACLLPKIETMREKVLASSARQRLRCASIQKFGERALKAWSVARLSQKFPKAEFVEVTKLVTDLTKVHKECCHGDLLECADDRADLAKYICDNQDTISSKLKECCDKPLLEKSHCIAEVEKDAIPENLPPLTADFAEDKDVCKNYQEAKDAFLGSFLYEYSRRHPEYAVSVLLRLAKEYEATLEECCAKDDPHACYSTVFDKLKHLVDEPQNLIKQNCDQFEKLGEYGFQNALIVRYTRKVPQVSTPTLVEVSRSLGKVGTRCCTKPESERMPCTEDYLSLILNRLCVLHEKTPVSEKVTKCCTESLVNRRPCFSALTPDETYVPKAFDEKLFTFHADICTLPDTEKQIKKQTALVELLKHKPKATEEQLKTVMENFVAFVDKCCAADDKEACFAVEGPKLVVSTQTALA

B1: Apt231 (AptBia231) (ssDNA)
DNA: GAATTCGATGGTAACCAATGCGCTTATGTTTTTTTTATTTTTTATGTTTCATCTGATCTAGCCAAG
[1]
  Kd: 45.4 nM

B2: Apt184 (ssDNA)
DNA: GAATTCGATGGTAACCAACCCAATGTGTTTCGTTTGTTTTCATTTGTCATCTGATCTAGCCAAG
[1]
  Kd: 277 nM

B3: Apt207 (AptBia207) (ssDNA)
DNA: GAATTCGATGGTAACCAAGTGTATTGTTTATTCTTCTGTTTCTTATTGTCATCTGATCTAGCCAAG
[1]
  Kd: 139 nM

B4: Apt211 (AptBia211) (ssDNA)
DNA: GAATTCGATGGTAACCAAGGAATATTTGGGGTTTTTTGCTTCTGGACGTCATCTGATCTAGCCAAG
[2]
  Kd: 132000 nM

B5: Apt181 (ssDNA)
DNA: GAATTCGATGGTAACCAATTTCCGTATTGTTGGTTTGTGTTTGTGTCGTCATCTGATCTAGCCAAG
[1]
  Kd: 298 nM

B6: Apt191 (ssDNA)
DNA: GAATTCGATGGTAACCAAGGGGGTGTTTGTTTTTGTAGTCATTGTTGGTCATCTGATCTAGCCAAG
[1]
  Kd: 84.2 nM
[3]
  binding result: no binding

B7: Apt208 (AptBia208) (ssDNA)
DNA: GAATTCGATGGTAACCAAGCAATTTGTATTTTTGTGTATTTATTTTGTTCATCTGATCTAGCCAAG
[1]
  Kd: 100 nM

B8: Apt216 (AptBia216) (ssDNA)
DNA: GAATTCGATGGTAACCAATGATGTTATTTTTTTGTGCTTTTATTCTTTTCATCTGATCTAGCCAAG
[1]
  Kd: 447 nM

B9: Apt187 (ssDNA)
DNA: GAATTCGATGGTAACCAAGGCGGGGTTTTCGTATGCTCATTCCAGTGGTCATCTGATCTAGCCAAG
[4]
  Kd: 0.19 nM

B10: Apt187 3'-biotin (ssDNA)
DNA: GAATTCGATGGTAACCAAGGCGGGGTTTTCGTATGCTCATTCCAGTGGTCATCTGATCTAGCCAAG
[5]
  Kd: 30.2 nM

B11: Apt180 (ssDNA)
DNA: GAATTCGATGGTAACCAAGGCTGTTCGGTATTTTGATATTTTTATGCGTCATCTGATCTAGCCAAG
[6]
  binding result: no binding
[7]
  Kd: 0.0044 nM

B12: Apt180 3'-biotin (ssDNA)
DNA: GAATTCGATGGTAACCAAGGCTGTTCGGTATTTTGATATTTTTATGCGTCATCTGATCTAGCCAAG
[8]
  binding result: no binding
[9]
  Kd: 1200 nM

B13: Apt100 (ssDNA)
DNA: GAATTCGATGGTAACCAAGGTCACTTTTTTATGTCGCTTAAATGTTGGTCATCTGATCTAGCCAAGC
[4]
  Kd: ~300 nM
